Data from patent publication US20220265819A1 (GEN2 NEUROSCIENCE, published 2022).
Numbering of substitutions follows the chain as printed.

B1: Clone 26 (VH4Vκ1), humanised variant of clone #28, human IgG1 (antibody, V domains shown)
VH: QVQLQESGPGLVKPSETLSLTCTVSGFSLNNYDMSWVRQAPGKGLEWIGTVSTTYRRYYASWAKGRFTISKDTSSTTVDLQMTSLTAEDTATYFCAASGIWGRGTLVTVSS
VL: AQVLTQSTSPLSASVGDRVTITCQSSQRVYSNYLAWYQQKPGQPPKRLIFLASTLESGVPSRFSGSGSGTEFTLTISSLQCDDFATYYCAGTYTGSIWAFGGGTEVVIK
notes: also called VH4VK1
B2: Clone 29 (VH4Vκ5), humanised variant of clone #28, human IgG1 (antibody, V domains shown)
VH: B1 VH
VL: DIQMTQSPSTLSASVGDRVTITCQSSQRVSSSYLAWYQQKPGQPPKRLIFLASTLESGVPSRFSGSGSGTEFTLTISSLQPDDFATYYCAGTYTGSIWAFGGGTKVEIK
notes: also called VH4VK5
B3: Clone 30 (VH5Vκ1), humanised variant of clone #28, human IgG1 (antibody, V domains shown)
VH: B1 VH with K71R, T73N, S75K, T76N, V78L
VL: B1 VL
notes: also called VH5VK1
B4: Clone 33 (VH5Vκ5), humanised variant of clone #28, human IgG1 (antibody, V domains shown)
VH: B1 VH with K71R, T73N, S75K, T76N, V78L
VL: B2 VL
notes: also called VH5VK5
B5: Clone 34 (VH6Vκ1), humanised variant of clone #28, human IgG1 (antibody, V domains shown)
VH: B1 VH with S61D, W62S, A63V, K71R, T73N, S75K, T76N, V78L
VL: B1 VL
notes: also called VH6VK1
B6: Clone 35 (VH6Vκ2), humanised variant of clone #28, human IgG1 (antibody, V domains shown)
VH: B1 VH with S61D, W62S, A63V, K71R, T73N, S75K, T76N, V78L
VL: B1 VL with T8P, P10T, C81P, E105K, V107E
notes: also called VH6VK2
B7: Clone 36 (VH6Vκ4), humanised variant of clone #28, human IgG1 (antibody, V domains shown)
VH: B1 VH with S61D, W62S, A63V, K71R, T73N, S75K, T76N, V78L
VL: B2 VL with S30Y, S32N
notes: also called VH6VK4
B8: Clone 37 (VH6Vκ5), humanised variant of clone #28, human IgG1 (antibody, V domains shown)
VH: B1 VH with S61D, W62S, A63V, K71R, T73N, S75K, T76N, V78L
VL: B2 VL
notes: also called VH6VK5
B9: Clone 23 (VH3Vκ2), humanised variant of clone #28, human IgG1 (antibody, V domains shown)
VH: QVQLQESGPGLVKPSETLSLTCTVSGFSLNNYDMSWVRQAPGKGLEWIGTVSTTYRRYYASWAKGRFTISKTSSTTVDLQMTSLTAEDTATYFCAASGIWGRGTLVTVSS
VL: B1 VL with T8P, P10T, C81P, E105K, V107E
notes: also called VH3VK2
B10: Clone 22 (VH3Vκ1), humanised variant of clone #28, human IgG1 (antibody, V domains shown)
VH: B9 VH
VL: B1 VL
notes: also called VH3VK1
B11: Clone 25 (VH3Vκ5), humanised variant of clone #28, human IgG1 (antibody, V domains shown)
VH: B9 VH
VL: B2 VL
notes: also called VH3VK5
B12: Clone 15 (VH1Vκ2), humanised variant of clone #28, human IgG1 (antibody, V domains shown)
VH: QSLQESGGGLVKPSETLSLTCTVSGFSLNNYDMSWVRQAPGKGLEWIGTVSTTYRRYYASWAKGRFTISKTSSTTVDLKMTSLTAEDTATYFCAASGIWGRGTLVTVSS
VL: B1 VL with T8P, P10T, C81P, E105K, V107E
notes: also called VH1VK2
B13: Clone 14 (VH1Vκ1), humanised variant of clone #28, human IgG1 (antibody, V domains shown)
VH: B12 VH
VL: B1 VL
notes: also called VH1VK1
B14: Clone 16 (VH1Vκ4), humanised variant of clone #28, human IgG1 (antibody, V domains shown)
VH: B12 VH
VL: B2 VL with S30Y, S32N
notes: also called VH1VK4
B15: Clone 17 (VH1Vκ5), humanised variant of clone #28, human IgG1 (antibody, V domains shown)
VH: B12 VH
VL: B2 VL
notes: also called VH1VK5
B16: Clone 18 (VH2Vκ1), humanised variant of clone #28, human IgG1 (antibody, V domains shown)
VH: B12 VH with G8P, K79Q
VL: B1 VL
notes: also called VH2VK1
B17: Clone 19 (VH2Vκ2), humanised variant of clone #28, human IgG1 (antibody, V domains shown)
VH: B12 VH with G8P, K79Q
VL: B1 VL with T8P, P10T, C81P, E105K, V107E
notes: also called VH2VK2
B18: Clone 20 (VH2Vκ4), humanised variant of clone #28, human IgG1 (antibody, V domains shown)
VH: B12 VH with G8P, K79Q
VL: B2 VL with S30Y, S32N
notes: also called VH2VK4

Target: T1, full length recombinant human 2N4R tau (amino acids 1-441) (human, UniProt P10636 1-758)
T1 construct: Bought (rPeptide); recombinant, non-phosphorylated; also called recombinant tau
Experiment: SPR Biacore SCK, IgG on Protein A, tau analyte
Experimental: 23.5 Assessment of antibody binding to tau (Biacore SCK analysis): Binding of anti-tau hIgG1 to full length recombinant 2N4R tau (Rpeptide; SEQ ID NO: 2) was assessed using the Biacore T200 (GE Healthcare, Chicago, Ill., USA) running Biacore T200 Evaluation Software V2.0.1. hIgG1 were immobilised on a Protein A capture sensor chip in running buffer (HBS-EP+ buffer containing 1 mg/mL BSA) at 25° C. captured to ˜50 RU at 10 μL/min. For single-cycle kinetics experiments, recombinant 2N4R tau was flowed at concentrations ranging from 5 nM to 40 nM (2-fold dilutions) with an association time of 150 s and a dissociation time of 200 s. Curves were compared to a reference cell that was mock immobilized (no antibody present).
Data were analysed using Langmuir (1:1) binding analysis, describing a 1:1 interaction at the surface: […]

T1 sequence (P10636 other isoform, or with tags, fused parts or gaps limits assumed): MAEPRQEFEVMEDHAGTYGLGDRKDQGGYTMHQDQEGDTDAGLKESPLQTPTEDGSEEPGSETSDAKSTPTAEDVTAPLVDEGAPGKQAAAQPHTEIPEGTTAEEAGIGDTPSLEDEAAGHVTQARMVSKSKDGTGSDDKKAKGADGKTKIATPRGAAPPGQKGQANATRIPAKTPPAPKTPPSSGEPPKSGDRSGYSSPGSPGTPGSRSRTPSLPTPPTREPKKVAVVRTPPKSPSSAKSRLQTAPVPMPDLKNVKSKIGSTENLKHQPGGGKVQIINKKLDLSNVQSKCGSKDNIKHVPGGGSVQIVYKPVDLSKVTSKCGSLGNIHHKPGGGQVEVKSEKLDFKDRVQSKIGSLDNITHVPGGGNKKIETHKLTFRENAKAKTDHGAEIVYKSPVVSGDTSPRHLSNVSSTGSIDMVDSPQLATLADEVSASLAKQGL

First: B1
Second: B2
The Kd of the first is 2-fold lower: 57.6 nM for the first, 114 nM for the second. The first binds more tightly here.

B3 and B4 are within 1.5-fold of each other in Kd: 75.7 nM for the first, 60.6 nM for the second.

Compared with B5, B6 is 1.6-fold higher in Kd: 141 nM for the first, 222 nM for the second.

B7 and B8 are the same in Kd: 123 nM for the first, 123 nM for the second.

B9 and B10 are within 1.5-fold of each other in Kd: 51.3 nM for the first, 43.9 nM for the second.

B11 and B12 are within 1.5-fold of each other in Kd: 38.9 nM for the first, 44.1 nM for the second.

B13 and B14 are within 1.5-fold of each other in Kd: 36.6 nM for the first, 31.2 nM for the second.

B15 and B16 are within 1.5-fold of each other in Kd: 41.1 nM for the first, 49.2 nM for the second.

Compared with B17, B18 is 1.8-fold lower in Kd: 67.3 nM for the first, 38 nM for the second.

First: B1
Second: B2
The “Relative KD” value of the first is lower: 1.27 fold vs VH0VK0 for the first, 2.52 fold vs VH0VK0 for the second.

Compared with B3, B4 is lower in “Relative KD” value: 1.67 fold vs VH0VK0 for the first, 1.34 fold vs VH0VK0 for the second.

Going from B5 to B6, the “Relative KD” value rises from 3.11 fold vs VH0VK0 to 4.9 fold vs VH0VK0.

B7 and B8 are the same in “Relative KD” value: 2.72 fold vs VH0VK0 for the first, 2.72 fold vs VH0VK0 for the second.

Compared with B9, B10 is lower in “Relative KD” value: 1.13 fold vs VH0VK0 for the first, 0.97 fold vs VH0VK0 for the second.

First: B11
Second: B12
The “Relative KD” value of the first is lower: 0.86 fold vs VH0VK0 for the first, 0.97 fold vs VH0VK0 for the second.

Compared with B13, B14 is lower in “Relative KD” value: 0.81 fold vs VH0VK0 for the first, 0.69 fold vs VH0VK0 for the second.

First: B15
Second: B16
The “Relative KD” value of the first is lower: 0.91 fold vs VH0VK0 for the first, 1.09 fold vs VH0VK0 for the second.

Going from B17 to B18, the “Relative KD” value falls from 1.49 fold vs VH0VK0 to 0.84 fold vs VH0VK0.

B1 and B2 are within 1.5-fold of each other in koff: 0.00336 s⁻¹ for the first, 0.00409 s⁻¹ for the second.

B3 and B4 are within 1.5-fold of each other in koff: 0.00351 s⁻¹ for the first, 0.00354 s⁻¹ for the second.

B5 and B6 are within 1.5-fold of each other in koff: 0.00525 s⁻¹ for the first, 0.00533 s⁻¹ for the second.

B7 and B8 are within 1.5-fold of each other in koff: 0.00406 s⁻¹ for the first, 0.00544 s⁻¹ for the second.

B9 and B10 are within 1.5-fold of each other in koff: 0.00253 s⁻¹ for the first, 0.00249 s⁻¹ for the second.

B11 and B12 are within 1.5-fold of each other in koff: 0.00316 s⁻¹ for the first, 0.00294 s⁻¹ for the second.

B13 and B14 are within 1.5-fold of each other in koff: 0.00308 s⁻¹ for the first, 0.00207 s⁻¹ for the second.

B15 and B16 are within 1.5-fold of each other in koff: 0.00428 s⁻¹ for the first, 0.0033 s⁻¹ for the second.

B17 and B18 are within 1.5-fold of each other in koff: 0.00324 s⁻¹ for the first, 0.00234 s⁻¹ for the second.

Going from B1 to B2, the kon falls from 58300 M⁻¹ s⁻¹ to 35900 M⁻¹ s⁻¹ (1.6-fold).

B3 and B4 are within 1.5-fold of each other in kon: 46300 M⁻¹ s⁻¹ for the first, 58400 M⁻¹ s⁻¹ for the second.

First: B5
Second: B6
The kon of the first is 1.6-fold higher: 37300 M⁻¹ s⁻¹ for the first, 24000 M⁻¹ s⁻¹ for the second.

B7 and B8 are within 1.5-fold of each other in kon: 33100 M⁻¹ s⁻¹ for the first, 44300 M⁻¹ s⁻¹ for the second.

B9 and B10 are within 1.5-fold of each other in kon: 49400 M⁻¹ s⁻¹ for the first, 56700 M⁻¹ s⁻¹ for the second.

B11 and B12 are within 1.5-fold of each other in kon: 81300 M⁻¹ s⁻¹ for the first, 66800 M⁻¹ s⁻¹ for the second.

B13 and B14 are within 1.5-fold of each other in kon: 84000 M⁻¹ s⁻¹ for the first, 66300 M⁻¹ s⁻¹ for the second.

First: B15
Second: B16
The kon of the first is 1.5-fold higher: 104000 M⁻¹ s⁻¹ for the first, 67100 M⁻¹ s⁻¹ for the second.

B17 and B18 are within 1.5-fold of each other in kon: 48100 M⁻¹ s⁻¹ for the first, 61500 M⁻¹ s⁻¹ for the second.

Target: T2, Bovine serum albumin (bovine, UniProt P02769 25-607)
T2 construct: Negative control antigen in ELISA; also called BSA
Experiment: ELISA on 1% BSA, HEK supernatant, anti-human IgG-HRP, n=1
Experimental: Antigen was removed from wells and the plates were then blocked for 1 hour at RT with 5% dried milk in 1×TBS. Blocking solution was removed, HEK293 cell supernatant (1:100 in 1% BSA/1×TBS) was added to relevant wells, and plates were incubated for 1 hour at RT with gentle shaking. Plates were then washed four times with TBS/0.1% Tween (TBST). Goat-anti-human IgG-HRP antibody (ThermoFisher Scientific, Waltham, Mass. USA), diluted 1:2000 in 5% milk/TBS, was added to each well and plates were incubated for 1 hour at RT with gentle shaking before being washed four times with TBST. 3,3′,5,5′-tetramethylbenzidine (TMB) ELISA solution was added to each well and plates were incubated for 15 mins at RT. An equal volume of 1 M sulfuric acid was added to each well and OD was measured at 450 nm.

T2 sequence (P02769 25-607 limits assumed): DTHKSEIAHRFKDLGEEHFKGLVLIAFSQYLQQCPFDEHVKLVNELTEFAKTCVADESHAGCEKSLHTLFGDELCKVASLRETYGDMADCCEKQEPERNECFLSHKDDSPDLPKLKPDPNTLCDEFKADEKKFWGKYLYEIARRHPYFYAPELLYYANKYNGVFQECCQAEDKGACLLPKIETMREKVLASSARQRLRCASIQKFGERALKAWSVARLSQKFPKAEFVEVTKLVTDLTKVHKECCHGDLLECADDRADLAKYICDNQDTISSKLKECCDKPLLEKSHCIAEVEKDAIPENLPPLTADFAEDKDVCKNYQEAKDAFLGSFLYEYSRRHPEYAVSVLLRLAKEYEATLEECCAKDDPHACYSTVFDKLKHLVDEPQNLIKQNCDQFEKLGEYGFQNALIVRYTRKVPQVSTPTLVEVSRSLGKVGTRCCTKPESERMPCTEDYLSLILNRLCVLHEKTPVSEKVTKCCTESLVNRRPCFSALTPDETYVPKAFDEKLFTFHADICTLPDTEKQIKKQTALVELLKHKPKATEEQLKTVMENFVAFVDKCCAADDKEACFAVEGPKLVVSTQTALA

B1: no binding (tested: supernatant 1:100).
B2: no binding (tested: supernatant 1:100).
B3: no binding (tested: supernatant 1:100).
B4: no binding (tested: supernatant 1:100).
B5: no binding (tested: supernatant 1:100).
B6: no binding (tested: supernatant 1:100).
B7: no binding (tested: supernatant 1:100).
B8: no binding (tested: supernatant 1:100).
B9: no binding (tested: supernatant 1:100).
B10: no binding (tested: supernatant 1:100).
B11: no binding (tested: supernatant 1:100).
B12: no binding (tested: supernatant 1:100).
B13: no binding (tested: supernatant 1:100).
B14: no binding (tested: supernatant 1:100).
B15: no binding (tested: supernatant 1:100).
B16: no binding (tested: supernatant 1:100).
B17: no binding (tested: supernatant 1:100).
B18: no binding (tested: supernatant 1:100).
